Measurements reported in PMC9573744, “Structural Insight of KSIII (β-Ketoacyl-ACP Synthase)-like Acyltransferase ChlB3 in the Biosynthesis of Chlorothricin” (Molecules, 2022).

Molecular target: the molecule itself
Experiment: crystal structure; sitting drop vapor diffusion, 0.1 M HEPS pH 7.0, 1.4 M sodium acetate-trihydrate, 20 °C; space group P212121, four dimers per asymmetric unit; 3.1 Å

B1: ChlB3 (enzyme, Streptomyces antibioticus DSM 40725)
chain: MRTPDIFIKATGRFLPETVSVEWAVEQGHYSAEDAELHELGGAAVAGDTPAPDMALWAAQQAVKRCGHRPEDLGLLLYVDSWHQGPDGWQPQYYLQRHLVGGDVLAVEIQQGCNGMFSALELAAAHLRAGPRPGSALVVAADNFGTPLFDRWTTGPGYIAGDGAGAVVLTTEPGFARLLAVRSLAVPEAEQMHRGAEPLFPPGATIGRPLNFTSRNAAFRELSLTEGLGTGALMRVHQRTLEVVEKTLSEAGITLGDITRVAYMNFSREIVEQRCMAALGLPMSASTWEFGRKLGHLGASDQVVALDELVTTGELGPGDHLLMLGMGPGVTLSCAVVKVLTPAPWSD
notes: ChlB3 acyltransferase of Streptomyces antibioticus DSM 40725, amplified from genomic DNA; chlB3 of 1044 bp cloned into pET28a (NheI/HindIII); also called KSIII (β-ketoacyl-ACP synthase)-like acyltransferase ChlB3; source: E. coli BL21 (DE3), purified (Nickel-NTA, Superdex-200 gel filtration)
  stoichiometry N: 2
